According to patent publication US20230194547A1 (Hoffmann-La Roche, published 2023):

Columns and labels:
[1] = molecular target: T1, human FcRn beta-2-microglobulin complex, biotinylated, coupled to streptavidin Sepharose (human, UniProt P55899 24-297; P61769 21-119, limits assumed, biotinylated (Bulk BIRA kit, Avidity)); experiment: FcRn affinity chromatography, pH gradient 5.5 to 8.8; unlabelled antibody
T1 construct: Secreted complex purified from the supernatant; also called neonatal Fc receptor; human FcRn chromatography column
T1 sequence (P55899 24-297 limits assumed, chain 1 of 2): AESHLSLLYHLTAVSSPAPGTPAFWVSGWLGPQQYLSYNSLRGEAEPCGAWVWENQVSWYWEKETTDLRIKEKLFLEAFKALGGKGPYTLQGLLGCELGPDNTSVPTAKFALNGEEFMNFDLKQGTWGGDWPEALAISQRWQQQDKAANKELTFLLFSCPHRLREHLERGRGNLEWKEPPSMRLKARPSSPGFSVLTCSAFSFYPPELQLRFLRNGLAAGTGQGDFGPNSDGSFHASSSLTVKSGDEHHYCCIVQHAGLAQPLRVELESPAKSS
T1 sequence (P61769 21-119 limits assumed, chain 2 of 2): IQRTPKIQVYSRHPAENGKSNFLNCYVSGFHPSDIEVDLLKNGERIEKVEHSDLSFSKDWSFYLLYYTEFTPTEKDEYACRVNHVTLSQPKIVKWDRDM
Procedure: (§1) The UV light absorption at a wavelength of 280 nm was used for detection. The column was regenerated for 10 minutes using 20% buffer B after each run.

[2] = molecular target: T1, human FcRn beta-2-microglobulin …; experiment: FcRn affinity chromatography, pH gradient 5.5 to 8.8; dye-labelled antibody
Procedure: as §1

B1: Ixekizumab (antibody)
chain 1: not shown
chain 2: DIVMTQTPLSLSVTPGQPASISCRSSRSLVHSRGNTYLHWYLQKPGQSPQLLIYKVSNRFIGVPDRFSGSGSGTDFTLKISRVEAEDVGVYYCSQSTHLPFTFGQGTKLEIKRTVAAPSVFIFPPSDEQLKSGTASVVCLLNNFYPREAKVQWKVDNALQSGNSQESVTEQDSKDSTYSLSSTLTLSKADYEKHKVYACEVTHQGLSSPVTKSFNRGEC
- relative retention time on FcRn affinity column [1]: 1.42 relative to anti-Her3 antibody standard

B2: anti-human phospho tau 422 antibody, labelled with pHAb dye (antibody, human IgG1, kappa, L234A L235A)
heavy: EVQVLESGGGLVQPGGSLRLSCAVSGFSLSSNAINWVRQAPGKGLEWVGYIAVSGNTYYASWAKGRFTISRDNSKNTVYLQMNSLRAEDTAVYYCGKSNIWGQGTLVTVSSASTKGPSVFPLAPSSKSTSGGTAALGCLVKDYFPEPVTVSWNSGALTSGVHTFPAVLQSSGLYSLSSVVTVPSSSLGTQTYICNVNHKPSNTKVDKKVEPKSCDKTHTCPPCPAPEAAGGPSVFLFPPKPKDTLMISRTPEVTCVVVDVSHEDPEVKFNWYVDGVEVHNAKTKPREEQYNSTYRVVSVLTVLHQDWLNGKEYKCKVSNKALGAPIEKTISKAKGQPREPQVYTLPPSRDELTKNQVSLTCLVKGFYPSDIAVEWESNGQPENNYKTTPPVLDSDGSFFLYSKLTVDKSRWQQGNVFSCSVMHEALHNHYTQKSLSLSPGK
light: AQVMTQSPSSLSASVGDRVTITCRSSQSVRTNRLAWFQQKPGQPPKRLIYSASTLDYGVPSRFSGSGSGTEFTLTISSLQPEDFATYYCLGYFDSSADIVAFGGGTKVEIKRTVAAPSVFIFPPSDEQLKSGTASVVCLLNNFYPREAKVQWKVDNALQSGNSQESVTEQDSKDSTYSLSSTLTLSKADYEKHKVYACEVTHQGLSSPVTKSFNRGEC
modifications: pHAb dye on a sulfo DBCO-PEG4-amine linker, clicked to the azide-modified N-glycan of the Fc-region
notes: also called anti-pTau antibody; anti-human p(422)Tau antibody
- relative retention time on FcRn affinity column [2]: 1.18 relative to anti-Her3 antibody standard

B3: anti-human phospho tau 422 antibody (antibody, human IgG1, kappa, L234A L235A)
heavy: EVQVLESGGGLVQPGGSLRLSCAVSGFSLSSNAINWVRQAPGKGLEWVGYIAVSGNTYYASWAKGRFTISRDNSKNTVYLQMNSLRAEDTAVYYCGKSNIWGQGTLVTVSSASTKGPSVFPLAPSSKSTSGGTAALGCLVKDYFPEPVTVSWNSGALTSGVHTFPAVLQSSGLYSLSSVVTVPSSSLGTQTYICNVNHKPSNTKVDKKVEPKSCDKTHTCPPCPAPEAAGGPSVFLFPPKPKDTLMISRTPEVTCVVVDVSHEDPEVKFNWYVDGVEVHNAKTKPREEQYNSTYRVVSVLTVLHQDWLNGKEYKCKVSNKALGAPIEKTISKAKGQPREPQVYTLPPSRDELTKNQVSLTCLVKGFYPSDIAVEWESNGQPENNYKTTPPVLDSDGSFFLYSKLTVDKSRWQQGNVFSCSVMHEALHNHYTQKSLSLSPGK
light: AQVMTQSPSSLSASVGDRVTITCRSSQSVRTNRLAWFQQKPGQPPKRLIYSASTLDYGVPSRFSGSGSGTEFTLTISSLQPEDFATYYCLGYFDSSADIVAFGGGTKVEIKRTVAAPSVFIFPPSDEQLKSGTASVVCLLNNFYPREAKVQWKVDNALQSGNSQESVTEQDSKDSTYSLSSTLTLSKADYEKHKVYACEVTHQGLSSPVTKSFNRGEC
notes: IgG1, unlabelled; also called anti-pTau antibody; anti-human p(422)Tau antibody
- relative retention time on FcRn affinity column [1]: 1.13 relative to anti-Her3 antibody standard

B4: Vedolizumab (antibody)
chain 1: not shown
chain 2: DVVMTQSPLSLPVTPGEPASISCRSSQSLAKSYGNTYLSWYLQKPGQSPQLLIYGISNRFSGVPDRFSGSGSGTDFTLKISRVEAEDVGVYYCLQGTHQPYTFGQGTKVEIKRTVAAPSVFIFPPSDEQLKSGTASVVCLLNNFYPREAKVQWKVDNALQSGNSQESVTEQDSKDSTYSLSSTLTLSKADYEKHKVYACEVTHQGLSSPVTKSFNRGEC
- relative retention time on FcRn affinity column [1]: 0.33 relative to anti-Her3 antibody standard
